Experimental data from patent US20040013664A1 (published 2004).
Each block holds one binder with its values, some of them ahead of it.

What was measured:
[1] = biological target: T1, Murine FasL expressed on murine L929 cells (mouse, UniProt P41047 1-279); experiment: cell-based or functional assay
T1 sequence (looked up): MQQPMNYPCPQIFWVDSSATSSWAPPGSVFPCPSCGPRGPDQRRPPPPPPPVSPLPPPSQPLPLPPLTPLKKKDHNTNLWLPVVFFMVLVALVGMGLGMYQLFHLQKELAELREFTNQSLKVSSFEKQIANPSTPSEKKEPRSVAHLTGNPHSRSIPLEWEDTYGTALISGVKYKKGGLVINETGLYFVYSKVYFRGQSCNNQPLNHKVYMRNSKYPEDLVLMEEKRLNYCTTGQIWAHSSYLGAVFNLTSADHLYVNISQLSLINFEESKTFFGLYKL

[2] = biological target: T2, Full length TNF-gamma-beta on the cell surface (human, UniProt O95150 1-251); experiment: flow cytometry competition on TNF-gamma-beta expressing cells; competitor DR3-Fc
T2 construct: whole, on cells; also called TNF-gamma-beta expressing cells
T2 sequence (looked up): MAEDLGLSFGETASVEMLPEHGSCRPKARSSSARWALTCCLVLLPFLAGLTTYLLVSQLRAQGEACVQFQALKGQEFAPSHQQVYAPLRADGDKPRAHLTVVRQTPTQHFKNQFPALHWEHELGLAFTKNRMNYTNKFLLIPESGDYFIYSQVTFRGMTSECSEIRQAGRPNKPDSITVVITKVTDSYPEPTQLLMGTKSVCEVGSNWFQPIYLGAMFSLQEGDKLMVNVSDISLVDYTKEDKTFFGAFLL

[3] = biological target: T2, Full length TNF-gamma-beta on the cell …; experiment: flow cytometry on HEK293F cells expressing full length TNF-gamma-beta
[4] = biological target: T3, AIM-II expressed on HEK 293 EBNA cells (UniProt O43557 1-240); experiment: flow cytometry on AIM-II-transfected HEK 293 EBNA cells
T3 construct: whole, on cells
T3 sequence (O43557 whole entry): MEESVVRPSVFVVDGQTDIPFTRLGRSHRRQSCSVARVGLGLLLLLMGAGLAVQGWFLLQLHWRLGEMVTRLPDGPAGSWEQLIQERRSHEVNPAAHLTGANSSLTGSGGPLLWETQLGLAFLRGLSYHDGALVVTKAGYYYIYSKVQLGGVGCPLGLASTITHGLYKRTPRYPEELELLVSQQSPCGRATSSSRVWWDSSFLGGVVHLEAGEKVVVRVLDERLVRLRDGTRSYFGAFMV
Description: For detecting Fc-fusion protein, cells were stained with FITC-conjugated goat anti-human IgG. […] The cells were analyzed by FACScan (Becton Dickinson).

[5] = biological target: T4, Fas receptor on human cells (Jurkat, HT-29) (human, UniProt P25445 26-335); experiment: cell-based or functional assay
T4 sequence (looked up): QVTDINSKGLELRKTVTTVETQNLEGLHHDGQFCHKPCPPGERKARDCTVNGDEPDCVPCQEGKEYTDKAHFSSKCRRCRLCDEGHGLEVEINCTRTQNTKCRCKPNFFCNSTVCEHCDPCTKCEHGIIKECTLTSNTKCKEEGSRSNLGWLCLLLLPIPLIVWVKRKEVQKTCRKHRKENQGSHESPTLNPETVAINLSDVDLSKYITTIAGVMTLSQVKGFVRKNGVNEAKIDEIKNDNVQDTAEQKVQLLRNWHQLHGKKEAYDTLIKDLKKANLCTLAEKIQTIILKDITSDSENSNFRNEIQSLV

B1: TNFR6 alpha-Fc (full length TNFR-6 alpha, amino acids 1-300 of SEQ ID NO:2, fused to an Fc domain of human IgG1) (Fc fusion, not shown: a dimerising Fc or GST)
chain: VAETPTYPWRDAETGERLVCAQCPPGTFVQRPCRRDSPTTCGPCPPRHYTQFWNYLERCRYCNVLCGEREEEARACHATHNRACRCRTGFFAHAGFCLEHASCPPGAGVIAPGTPSQNTQCQPCPPGTFSASSSSSEQCQPHRNCTALGLALNVPGSSSHDTLCTSCTGFPLSTRVPGAEECERAVIDFVAFQDISIKRLQRLLQALEAPEGWGPTPRAGRAALQLKLRRRLTELLGAQDGALLVRLLQALRVARMPGLERSVRERFLPVH
potency relative to Fas-Fc, killing of A20 cells by murine FasL transfected L929 cells [1]: 100 fold

B2: TR6 (full-length human TNFR-6 alpha without Fc) (receptor)
chain: B1 chain
notes: Full-length cDNA (aa 1-300) expressed in Sf9 cells; also called TR6-non-Fc; TR6 non-Fc
molar ratio (TR6 to DR3-Fc) at which no DR3-Fc binding was detected [2]: 2 mol/mol

B4: LTβR-Fc (Fc fusion, UniProt P36941 31-227, looked up)
chain: QAVPPYASENQTCRDQEKEYYEPQHRICCSRCPPGTYVSAKCSRIRDTVCATCAENSYNEHWNYLTICQLCRPCDPVMGLEEIAPCTSKRKTQCRCQPGMFCAAWALECTHCELLSDCPPGTEAELKDEVGKGNNHCVPCKAGHFQNTSSPSARCQPHTRCENQGLVEAAPGTAQSDTTCKNPLEPLPPEMSGTMLM
notes: also called LTbetaR-Fc; LTBR-Fc; not shown: Fc portion
binding result [4]: binds

B5: Soluble human FLAG-FasL (synthesized at HGS) (ligand, UniProt P48023 130-281, looked up, not shown: small tags and cut ends)
chain: QIGHPSPPPEKKELRKVAHLTGKSNSRSMPLEWEDTYGIVLLSGVKYKKGGLVINETGLYFVYSKVYFRGQSCNNLPLSHKVYMRNSKYPQDLVMMEGKMMSYCTTGQMWARSSYLGAVFNLTSADHLYVNVSELSLVNFEESQTFFGLYKL
increase in apoptotic Jurkat cells over untreated controls (annexin FACS) [5]: ~7 fold

B7: HVEM/TR2-Fc (Fc fusion)
chain: LPSCKEDEYPVGSECCPKCSPGYRVKEACGELTGTVCEPCPPGTYIAHLNGLSKCLQCQMCDPAMGLRASRNCSRTENAVCGCSPGHFCIVQDGDHCAACRAYATSSPGQRVQKGGTESQDTLCQNCPPGTFSPNGTLEECQHQTKCSWLVTKAGAGTSSSHWV
notes: also called soluble form of HVEM/TR2-Fc; not shown: Fc portion
binding result [4]: binds

More lines, now with the values ahead:

binding result [3]: no binding
B3: OPG-Fc (Fc-fusion form of the extracellular domain) (Fc fusion, UniProt O00300 22-194, looked up)
chain: ETFPPKYLHYDEETSHQLLCDKCPPGTYLKQHCTAKWKTVCAPCPDHYYTDSWHTSDECLYCSPVCKELQYVKQECNRTHNRVCECKEGRYLEIEFCLKHRSCPPGFGVVQAGTPERNTVCKRCPDGFFSNETSSKAPCRKHTNCSVFGLLLTQKGNATHDNICSGNSESTQK
notes: extracellular domain; not shown: Fc portion

binding result [3]: no binding
B6: DcR1-Fc (Fc-fusion form of the extracellular domain) (Fc fusion, UniProt O14798 26-221, looked up)
chain: ATTARQEEVPQQTVAPQQQRHSFKGEECPAGSHRSEHTGACNPCTEGVDYTNASNNEPSCFPCTVCKSDQKHKSSCTMTRDTVCQCKEGTFRNENSPEMCRKCSRCPSGEVQVSNCTSWDDIQCVEEFGANATVETPAAEETMNTSPGTPAPAAEETMNTSPGTPAPAAEETMTTSPGTPAPAAEETMTTSPGTPA
notes: as for B3
